The source of these data is US20250026849A1 (ARCELLX, published 2025).

The chains are these.
T1: CD123 (Homo sapiens (Human), UniProt P26951 19-305, limits assumed)
T1 construct: The CD123 construct used in the ELISA is not described; also called CD123-Signal
T1 sequence: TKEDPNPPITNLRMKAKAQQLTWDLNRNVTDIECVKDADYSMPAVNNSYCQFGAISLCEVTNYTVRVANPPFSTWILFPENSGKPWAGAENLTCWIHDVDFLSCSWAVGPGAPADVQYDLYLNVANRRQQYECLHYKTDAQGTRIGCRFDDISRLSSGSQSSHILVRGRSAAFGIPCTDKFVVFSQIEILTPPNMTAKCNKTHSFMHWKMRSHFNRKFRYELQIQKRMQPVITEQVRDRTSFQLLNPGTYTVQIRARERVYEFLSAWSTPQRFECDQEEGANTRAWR

B1: D domain of SEQ ID NO: 366 (designed binder)
chain: MGSWEEFAQRLYAIEWRLYALGGSEAELAAFEKEIAAFESELQAYKGKGNPEVEVLRYVAAQIRYHLQAYRHN
B2: D domain of SEQ ID NO: 385 (designed binder)
chain: MGSWDEFGRRLYAIEWRLYALGGSEAELAAFEKEIAAFESELQAYKGKGNPEVEKLREIAAVIRSNLQAYRHN
B3: D domain of SEQ ID NO: 360 (designed binder)
chain: MGSWTEFVWRLEAIWDRLDALGGSEAELAAFEKEIAAFESELQAYKGKGNPEVEVLREDAAVIRHFLQAYRHN
B4: D domain of SEQ ID NO: 368 (designed binder)
chain: MGSWDEFYYRLEAIEMRLGALGGSEAELAAFEKEIAAFESELQAYKGKGNPEVEELRHYAAQIRHMLQAYRHN
B5: D domain of SEQ ID NO: 369 (designed binder)
chain: MGSWEEFYDRLEAIYNRLGALGGSEAELAAFEKEIAAFESELQAYKGKGNPEVEVLREYAADIREMLQAYRHN
B6: D domain of SEQ ID NO: 410 (designed binder)
chain: MGSWVEFWDRLWAIDYRLFALGGSEAELAAFEKEIAAFESELQAYKGKGNPEVEALRDEAAWIREELQAYRHN
B7: D domain of SEQ ID NO: 417 (designed binder)
chain: MGSWDEFEERLFAIDERLWALGGSEAELAAFEKEIAAFESELQAYKGKGNPEVEALRYLAADIREELQAYRHN
B8: D domain of SEQ ID NO: 411 (designed binder)
chain: MGSWVEFVDRLWAIDERLDALGGSEAELAAFEKEIAAFESELQAYKGKGNPEVEFLRTWAAWIREDLQAYRHN
B9: D domain of SEQ ID NO: 399 (designed binder)
chain: MGSWVEFWDRLDAIEGRLWALGGSEAELAAFEKEIAAFESELQAYKGKGNPEVEDLRWLAAEIRADLQAYRHN
B10: D domain of SEQ ID NO: 409 (designed binder)
chain: MGSWYEFWGRLDAIEERLWALGGSEAELAAFEKEIAAFESELQAYKGRGNPEVEMLREDAAEIRGQLQAYRHN
B11: D domain of SEQ ID NO: 420 (designed binder)
chain: MGSWLEFMWRLDAIDERLWALGGSEAELAAFEKEIAAFESELQAYKGKGNPEVELLREMAAAIRDDLQAYRHN
B12: D domain of SEQ ID NO: 418 (designed binder)
chain: MGSWEEFWERLDAIDTRLWALGGSEAELAAFEKEIAAFESELQAYKGKGNPEVEVLRNDAADIREPLQAYRHN
B13: D domain of SEQ ID NO: 419 (designed binder)
chain: MGSWMEFWERLEAIDMRLWALGGSEAELAAFEKEIAAFESELQAYKGKGNPEVEYLRDDAAVIRDDLQAYRHN
B14: D domain of SEQ ID NO: 406 (designed binder)
chain: MGSWFEFNYRLGAIEDRLWALGGSEAELAAFEKEIAAFESELQAYKGKGNPEVEMLRQIAAEIREFLQAYRHN
B15: D domain of SEQ ID NO: 367 (designed binder)
chain: MGSWDEFAWRLDVIFARLGALGGSEAELAAFEKEIAAFESELQAYKGKGNPEVEELRKNAAQIRDGLQAYRHN
B16: D domain of SEQ ID NO: 398 (designed binder)
chain: MGSWHEFDQRLWAIEERLWALGGSEAELAAFEKEIAAFESELQAYKGKGNPEVETLRLYAALIRHDLQAYRHN
B17: D domain of SEQ ID NO: 407 (designed binder)
chain: MGSWEEFFTRLDAINERLEALGGSEAELAAFEKEIAAFESELQAYKGKGNPEVEMLRYEAAEIRHMLQAYRHN
B18: D domain of SEQ ID NO: 408 (designed binder)
chain: MGSWYEFSNRLDAIGERLWALGGSEAELAAFEKEIAAFESELQAYKGKGNPEVEILRHQAAEIRWFLQAYRHN
B19: D domain of SEQ ID NO: 395 (designed binder)
chain: MGSWVEFDQRLGAIWDRLVALGGSEAELAAFEKEIAAFESELQAYKGKGNPEVEHLRQGAAVIRDDLQAYRHN
B20: D domain of SEQ ID NO: 394 (designed binder)
chain: MGSWDEFEQRLIAIEERLFALGGSEAELAAFEKEIAAFESELQAYKGKGNPEVEWLREEAAVIRKYLQAYRHN
B21: D domain of SEQ ID NO: 445 (designed binder)
chain: MGSWSEFYVRVDAIYARLSALGGSEAELAAFEKEIAAFESELQAYKGKGNPEVEKLRVWAANIRHELQAYRHN
B22: D domain of SEQ ID NO: 454 (designed binder)
chain: MGSWNEFAWRLDAIYSRLAALGGSEAELAAFEKEIAAFESELQAYKGKGNPEVEWLRVAAANIRYELQAYRHN
B23: D domain of SEQ ID NO: 449 (designed binder)
chain: MGSWVEFNIRLDAIYERLYALGGSEAELAAFEKEIAAFESELQAYKGKGNPEVEKLRHWAASIRRELQAYRHN
B24: D domain of SEQ ID NO: 455 (designed binder)
chain: MGSWTEFAWRLDAIYDRLLALGGSEAELAAFEKEIAAFESELQAYKGKGNPEVEWLRHVAANIRRELQAYRHN
B25: D domain of SEQ ID NO: 460 (designed binder)
chain: MGSWIEFEVRLDAIYNRLAALGGSEAELAAFEKEIAAFESELQAYKGKGNPEVERLRRYAANIRHELQAYRHN
B26: D domain of SEQ ID NO: 452 (designed binder)
chain: MGSWTEFNLRLDAIYGRLSALGGSEAELAAFEKEIAAFESELQAYKGKGNPEVEFLRAAAANIRVELQAYRHN
B27: D domain of SEQ ID NO: 450 (designed binder)
chain: MGSWHEFGVRLDAIYDRLMALGGSEAELAAFEKEIAAFESELQAYKGKGNPEVEFLRQAAANIRSELQAYRHN
B28: D domain of SEQ ID NO: 464 (designed binder)
chain: MGSWSEFYLRLDAIYDRLDALGGSEAELAAFEKEIAAFESELQAYKGKGNPEVEWLRKTAANIREELQAYRHN
B29: D domain of SEQ ID NO: 457 (designed binder)
chain: MGSWVEFYIRLDAIYVRLMALGGSEAELAAFEKEIAAFESELQAYKGKGNPEVEKLRSYAANIRQELQAYRHN
B30: D domain of SEQ ID NO: 446 (designed binder)
chain: MGSWSEFHVRLDAIYARLDALGGSEAELAAFEKEIAAFESELQAYKGKGNPEVERLREWAANIRRELQAYRHN
B31: D domain of SEQ ID NO: 453 (designed binder)
chain: MGSWVEFNWRLDAIYDRLVALGGSEAELAAFEKEIAAFESELQAYKGKGNPEVEWLRVSAAKIRGELQAYRHN
B32: D domain of SEQ ID NO: 463 (designed binder)
chain: MGSWYEFDYRLDAIYDRLAALGGSEAELAAFEKEIAAFESELQAYKGKGNPEVERLRKWAANIREELQAYRHN
B33: D domain of SEQ ID NO: 459 (designed binder)
chain: MGSWVEFIYRLDAIYDRLEALGGSEAELAAFEKEIAAFESELQAYKGKGNPEVEVLRRYAANIRNELQAYRHN
B34: D domain of SEQ ID NO: 451 (designed binder)
chain: MGSWTEFNLRLDAIYDRLMALGGSEAELAAFEKEIAAFESELQAYKGKGNPEVEWLRASAAAIRVELQAYRHN
B35: D domain of SEQ ID NO: 448 (designed binder)
chain: MGSWVEFEMRLDAIVGRLYALGGSEAELAAFEKEIAAFESELQAYKGKGNPEVEKLRRWAANIRSELQAYRHN
B36: D domain of SEQ ID NO: 458 (designed binder)
chain: MGSWYEFSMRLDAIYDRLMALGGSEAELAAFEKEIAAFESELQAYKGKGNPEVEQLRGYAANIRNELQAYRHN
B37: D domain of SEQ ID NO: 447 (designed binder)
chain: MGSWVEFHLRLDAIYGRLMALGGSEAELAAFEKEIAAFESELQAYKGKGNPEVENLRVWAANIRNELQAYRHN
B38: D domain of SEQ ID NO: 462 (designed binder)
chain: MGSWFEFYMRLDAIYDRLTALGGSEAELAAFEKEIAAFESELQAYKGKGNPEVERLRTFAANIRKELQAYRHN
B39: D domain of SEQ ID NO: 461 (designed binder)
chain: MGSWFEFYDRLDAIYMRLIALGGSEAELAAFEKEIAAFESELQAYKGKGNPEVEVLRRYAANIRAELQAYRHN
B40: D domain of SEQ ID NO: 456 (designed binder)
chain: MGSWVEFSIRLDAIYTRLVALGGSEAELAAFEKEIAAFESELQAYKGKGNPEVEMLRKGAANIRKELQAYRHN

The target of the assay is T1, CD123. The experiment in a line: ELISA. Set-up: unit not given here. A general note: ELISA stands for enzyme-linked immunosorbent assay.
Regarding B1, the ELISA_avg stood at 16.9.
Next, B2: 5.8.
Next, B3: 3.6; B4: 7.2; B5: 18.6.
B6 came in with an ELISA_avg of 3.6.
The result for B7 reads 5.
Regarding B8, the ELISA_avg was determined as 3.2.
The result for B9 reads 3.5.
Next, B10: 5.4; B11: 5.1; B12: 6.8.
B13 showed an ELISA_avg of 4.2.
Next, B14: 6.9.
The result for B15 reads 4.6; that for B16, 3.3.
As to B17, the ELISA_avg worked out at 3.9.
Next, B18: 3.9.
Next, B19: 5.3; B20: 5.9.
The molecule B21 had an ELISA_avg of 14.7.
In turn, B22 yielded an ELISA_avg of 17.7.
In turn, B23 had an ELISA_avg of 13.4.
Next, B24: 16.1; B25: 20.8; B26: 19.3.
In turn, B27 came in with an ELISA_avg of 15.6.
Next, B28: 15.7; B29: 16.1; B30: 14.4.
The result for B31 reads 9.3.
Next, B32: 24.9.
In the case of B33, the ELISA_avg was 17.
The result for B34 reads 14.4.
Next, B35: 25.3; B36: 13.
Next, B37: 17.5; B38: 13.1; B39: 13.6.
With B40, the ELISA_avg is 15.1.
